Experimental data from patent US11673916B2, “Neuroprotective peptides and methods of their use” (University of Pittsburgh—Of the Commonwealth System of …, priority 2020, dated 2023).

Target: T1, Kv2.1 surface clusters (Rattus norvegicus, UniProt P15387)
T1 construct: expressed in transfected cells; host or cells: primary rat cortical neurons (E16-17 Sprague-Dawley), Lipofectamine 2000
T1 sequence (P15387 1-857): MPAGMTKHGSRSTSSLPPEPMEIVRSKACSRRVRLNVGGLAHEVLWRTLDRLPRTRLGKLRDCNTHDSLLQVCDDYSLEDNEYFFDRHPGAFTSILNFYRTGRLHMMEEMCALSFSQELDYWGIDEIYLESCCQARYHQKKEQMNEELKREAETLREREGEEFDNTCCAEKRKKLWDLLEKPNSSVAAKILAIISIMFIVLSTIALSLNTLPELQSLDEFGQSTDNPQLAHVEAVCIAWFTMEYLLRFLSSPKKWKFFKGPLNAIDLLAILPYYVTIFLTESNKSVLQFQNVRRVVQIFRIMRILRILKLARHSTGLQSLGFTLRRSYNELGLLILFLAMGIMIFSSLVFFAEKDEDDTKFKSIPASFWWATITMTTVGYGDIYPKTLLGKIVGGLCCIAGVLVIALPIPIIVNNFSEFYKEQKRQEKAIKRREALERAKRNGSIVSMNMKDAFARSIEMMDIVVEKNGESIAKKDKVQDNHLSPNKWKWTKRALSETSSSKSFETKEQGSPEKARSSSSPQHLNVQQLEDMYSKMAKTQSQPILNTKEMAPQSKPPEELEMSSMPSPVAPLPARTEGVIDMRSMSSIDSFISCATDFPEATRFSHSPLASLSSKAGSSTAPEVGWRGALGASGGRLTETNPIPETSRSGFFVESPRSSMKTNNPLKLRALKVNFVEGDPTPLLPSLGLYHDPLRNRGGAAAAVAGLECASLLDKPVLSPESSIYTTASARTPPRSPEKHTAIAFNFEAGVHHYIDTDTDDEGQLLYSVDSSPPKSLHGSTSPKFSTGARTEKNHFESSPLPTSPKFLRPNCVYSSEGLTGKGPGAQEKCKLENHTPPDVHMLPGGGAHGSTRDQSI
Assay: Kv2.1 surface cluster density in live cortical neurons co-transfected with Kv2.1-GFP and peptide-expressing plasmids
Assay type: cell-based
Conditions: plasmid-driven expression, 24 h after transfection, mean+/-SEM (FIG. 1C)
Procedure: In vitro experiments utilized primary cortical neuronal cultures prepared from embryonic day 16-17 Sprague-Dawley rats of either sex in a protocol described previously (McCord et al., J Physiol (Lond). 592: 3511-3521, 2014). Timed-pregnant rats (Charles River Laboratories, Wilmington, Mass.) were sacrificed by CO2 inhalation. Embryonic cortices were dissociated with trypsin (0.6 mg/mL) and cells plated in sterile 6-well plates on poly-L-ornithine-coated glass coverslips at a density of 670,000 cells per well. Cytosine arabinoside (1-2 μM) was utilized to inhibit non-neuronal proliferation on day 14 in vitro (DIV); cultures were utilized at 21-25 DIV.
Transfections were performed with Lipofectamine 2000 (L2K; Invitrogen, Carlsbad, Calif.). Cortical neuronal cultures on glass coverslips were placed into wells containing 500 μL of Dulbecco's minimum essential medium with 2% HyClone bovine serum (D2C; Thermo Fisher Scientific, Waltham, Mass.). A mixture of 1.5 μg of total cDNA and 2 μL of L2K was prepared in 100 μL of Opti-MEM I (Life Technologies Corp., Grand Island, N.Y.) for each well and added. […]
To analyze Kv2.1 distribution in live primary cortical neurons, cells were transfected with both a tdTomato construct and a GFP-tagged Kv2.1 construct (O'Connell, et al., J Neurosci. 26: 9609-9618, 2006) and imaged on a Nikon A1+ confocal microscope (Nikon, Tokyo, Japan). […] For live images of transfected neurons, object count parameters were customized to define a Kv2.1 cluster as an area of high intensity GFP fluorescence (compared to background), measuring 0.05 μm^2 or larger (Schulien et al., J Physiol (Lond). 594: 2647-2659, 2016). Kv2.1 cluster density was calculated by normalizing the number of Kv2.1 clusters counted to the somatic area of each neuron (#Kv2.1 clusters/μm^2). […] In each neuron analyzed, two populations on Kv2.1-GFP expression were first noted—(a) highly localized signals of clustered Kv2.1 channels, and (b) diffuse background staining that represents freely-dispersed, conducting Kv2.1 channels on the plasma membrane. […]

Row | Substance | mean Kv2.1 surface cluster density
1 | MKSTSSIDSFTS [DP-1, plasmid expressed expanded declustering peptide (pCMV-DP-1)] | 0.04±0.01 #Kv2.1 clusters/μm^2 of neuronal soma
2 | Kv2.2 CT: Kv2.2 channel C-terminal peptide expressed from plasmid pCMV-Kv2.2CT (EVIVDMKSTSSIDSFTSCATDFTETE) | 0.07±0.01 #Kv2.1 clusters/μm^2 of neuronal soma
3 | MKSTSDFSSIST [Sc-1, plasmid expressed scrambled control of DP-1 (pCMV-Sc-1)] | 0.14±0.03 #Kv2.1 clusters/μm^2 of neuronal soma
